Measurements from patent publication US20200123233A1.

Tests used:
[1] = biological target: FTM-NN (membrane anchorless form of the Long fusion protein, 70 kDa) (human respiratory syncytial virus, strain Long) (UniProt P12568)
[2] = biological target: F protein of hRSV strain B-1 (human respiratory syncytial virus, strain B-1 (ATCC VR-1580)) (UniProt P13843); assay: cell-based or functional assay
[3] = biological target: F protein of hRSV strain Long (human respiratory syncytial virus, strain Long (ATCC VR-26)) (UniProt P12568); assay: cell-based or functional assay
[4] = biological target: FTM-NN (membrane anchorless form of the Long fusion protein, 70 kDa) (human respiratory syncytial virus, strain Long) (UniProt P12568); assay: SPR (Biacore), FTM-NN immobilised
[5] = biological target: F protein of RSV Long (RSV LONG M-2) (human respiratory syncytial virus, strain Long) (UniProt P12568); assay: cell-based or functional assay
[6] = biological target: F protein of RSV B-1 (human respiratory syncytial virus, strain B-1) (UniProt P13843); assay: cell-based or functional assay
[7] = biological target: F protein of RSV A-2 (human respiratory syncytial virus, strain A-2) (UniProt P03420); assay: cell-based or functional assay

101F Fab (WO 06/050280) was tested. Which IC50 [1] did it give?
Its IC50 is 1.12 nM.

“Numax Fab (Motavizumab or MEDI-524; WO 06/050166)” was tested. Which IC50 [1] did it give?
The IC50 was 0.086 nM.

“Synagis (Palivizumab, MedImmune, humanized monoclonal antibody)” was tested. Which Neutralization IC50 (nM), B-1 (first assay) [2] did it give?
Its Neutralization IC50 (nM), B-1 (first assay) is 2.1 nM.

What about the Neutralization IC50 (nM), B-1 (second assay) [2] of the same substance?
Its Neutralization IC50 (nM), B-1 (second assay) is 2.9 nM.

What about the Neutralization IC50 (nM), Long (first assay) [3] of the same substance?
Its Neutralization IC50 (nM), Long (first assay) is 7.3 nM.

And the Neutralization IC50 (nM), Long (second assay) [3]?
The Neutralization IC50 (nM), Long (second assay) was 6 nM.

Which IC50 [1] does the source give for Synagis Fab here?
The IC50 was 0.597 nM.

How did the Kd [4] turn out when “Synagis® (Palivizumab, MedImmune, humanized monoclonal antibody)” was run?
Its Kd is 0.64 nM.

What about the koff [4] of the same substance?
The koff was 0.00018 s⁻¹.

And the kon [4]?
Its kon is 280000 M⁻¹ s⁻¹.

What about the RSV neutralization IC50 (nM) (n = 2), Long [5] of the same substance?
The RSV neutralization IC50 (nM) (n = 2), Long was 4 nM.

And the RSV neutralization IC50 (nM) (n = 2), B1 [6]?
The RSV neutralization IC50 (nM) (n = 2), B1 was 1.7 nM.

What about the RSV neutralization IC50 (nM) (n = 2), A-2 [7] of the same substance?
The RSV neutralization IC50 (nM) (n = 2), A-2 was 2.5 nM.
